In patent publication US20140087995A1 (published 2014):
Numbered stars: 1 amine (or outer) side, 2 acyl side, 3 side chain; on linkers, the order of the positions; unused ones are H or OH. Bridge positions count the residues as written; N and C are the ends. Square brackets hold non-standard residues; d marks the D form. Side chains are listed from the residue outwards. Ends that are not written are not given here. * marks the point of attachment. C20 diacid = O=C(O)CCCCCCCCCCCCCCCCCCC(=O)*; γGlu = O=C(O)[C@H](CCC(=O)[*:2])N[*:1]

T1: human calcitonin receptor (human, UniProt P30988 25-474)
T1 construct: whole, on cells; also called hCTR; hCT
T1 sequence (looked up): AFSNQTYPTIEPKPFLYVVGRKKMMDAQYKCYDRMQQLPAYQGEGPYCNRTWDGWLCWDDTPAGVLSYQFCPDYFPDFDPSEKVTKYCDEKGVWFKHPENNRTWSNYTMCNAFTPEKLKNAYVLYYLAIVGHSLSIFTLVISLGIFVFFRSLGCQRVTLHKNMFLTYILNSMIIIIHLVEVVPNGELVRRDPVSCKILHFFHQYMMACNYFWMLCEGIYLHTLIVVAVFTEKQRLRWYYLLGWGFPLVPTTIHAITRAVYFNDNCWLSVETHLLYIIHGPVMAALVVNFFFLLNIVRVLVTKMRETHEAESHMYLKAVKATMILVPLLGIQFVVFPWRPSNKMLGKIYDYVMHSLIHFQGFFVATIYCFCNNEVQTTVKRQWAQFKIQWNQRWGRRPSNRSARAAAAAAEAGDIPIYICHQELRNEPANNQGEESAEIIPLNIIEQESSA

T2: human amylin receptor (amylin 3(a) receptor: human calcitonin receptor with RAMP-3) (human, UniProt P30988 25-474; O60896 24-148, limits assumed)
T2 sequence (looked up) 1: T1 sequence (looked up)
T2 sequence (looked up) 2: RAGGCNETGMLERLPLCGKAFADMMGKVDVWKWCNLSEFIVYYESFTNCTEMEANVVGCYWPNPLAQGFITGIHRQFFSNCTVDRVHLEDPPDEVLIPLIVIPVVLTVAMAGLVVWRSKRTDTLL

T3: human calcitonin receptor (human, UniProt P30988 25-474)
T3 sequence (looked up): T1 sequence (looked up)

B1: N^ε1-[(4S)-4-carboxy-4-(19-carboxynonadecanoylamino)butanoyl]-[Glu14,Arg17,Pro21,Pro27,Pro34,Arg35]-h-amylin (peptide)
peptide: K([γGlu-C20 diacid])CNTATCATQRLAEFLRHSSPNFGAIPSSTNVGPRTY-NH2
modifications: disulfide 2-7; N-terminus assumed
SMILES: CC[C@H](C)[C@H](NC(=O)[C@H](C)NC(=O)CNC(=O)[C@H](Cc1ccccc1)NC(=O)[C@H](CC(N)=O)NC(=O)[C@@H]1CCCN1C(=O)[C@H](CO)NC(=O)[C@H](CO)NC(=O)[C@H](Cc1c[nH]cn1)NC(=O)[C@H](CCCNC(=N)N)NC(=O)[C@H](CC(C)C)NC(=O)[C@H](Cc1ccccc1)NC(=O)[C@H](CCC(=O)O)NC(=O)[C@H](C)NC(=O)[C@H](CC(C)C)NC(=O)[C@H](CCCNC(=N)N)NC(=O)[C@H](CCC(N)=O)NC(=O)[C@@H](NC(=O)[C@H](C)NC(=O)[C@@H]1CSSC[C@H](NC(=O)[C@@H](N)CCCCNC(=O)CC[C@H](NC(=O)CCCCCCCCCCCCCCCCCCC(=O)O)C(=O)O)C(=O)N[C@@H](CC(N)=O)C(=O)N[C@@H]([C@@H](C)O)C(=O)N[C@@H](C)C(=O)N[C@@H]([C@@H](C)O)C(=O)N1)[C@@H](C)O)C(=O)N1CCC[C@H]1C(=O)N[C@@H](CO)C(=O)N[C@@H](CO)C(=O)N[C@H](C(=O)N[C@@H](CC(N)=O)C(=O)N[C@H](C(=O)NCC(=O)N1CCC[C@H]1C(=O)N[C@@H](CCCNC(=N)N)C(=O)N[C@H](C(=O)N[C@@H](Cc1ccc(O)cc1)C(N)=O)[C@@H](C)O)C(C)C)[C@@H](C)O
B2: N^ε1-[(4S)-4-carboxy-4-(19-carboxynonadecanoylamino)butanoyl]-[Asp14,Arg17,Pro21,Pro27,Pro34,Arg35]-h-amylin (peptide)
peptide: K([γGlu-C20 diacid])CNTATCATQRLADFLRHSSPNFGAIPSSTNVGPRTY-NH2
modifications: disulfide 2-7; N-terminus assumed
SMILES: CC[C@H](C)[C@H](NC(=O)[C@H](C)NC(=O)CNC(=O)[C@H](Cc1ccccc1)NC(=O)[C@H](CC(N)=O)NC(=O)[C@@H]1CCCN1C(=O)[C@H](CO)NC(=O)[C@H](CO)NC(=O)[C@H](Cc1c[nH]cn1)NC(=O)[C@H](CCCNC(=N)N)NC(=O)[C@H](CC(C)C)NC(=O)[C@H](Cc1ccccc1)NC(=O)[C@H](CC(=O)O)NC(=O)[C@H](C)NC(=O)[C@H](CC(C)C)NC(=O)[C@H](CCCNC(=N)N)NC(=O)[C@H](CCC(N)=O)NC(=O)[C@@H](NC(=O)[C@H](C)NC(=O)[C@@H]1CSSC[C@H](NC(=O)[C@@H](N)CCCCNC(=O)CC[C@H](NC(=O)CCCCCCCCCCCCCCCCCCC(=O)O)C(=O)O)C(=O)N[C@@H](CC(N)=O)C(=O)N[C@@H]([C@@H](C)O)C(=O)N[C@@H](C)C(=O)N[C@@H]([C@@H](C)O)C(=O)N1)[C@@H](C)O)C(=O)N1CCC[C@H]1C(=O)N[C@@H](CO)C(=O)N[C@@H](CO)C(=O)N[C@H](C(=O)N[C@@H](CC(N)=O)C(=O)N[C@H](C(=O)NCC(=O)N1CCC[C@H]1C(=O)N[C@@H](CCCNC(=N)N)C(=O)N[C@H](C(=O)N[C@@H](Cc1ccc(O)cc1)C(N)=O)[C@@H](C)O)C(C)C)[C@@H](C)O
B3: N^ε1-[(4S)-4-carboxy-4-(19-carboxynonadecanoylamino)butanoyl]-[Asp14,Arg17,Pro21,Pro27,Pro34,Glu35]-h-amylin (peptide)
peptide: K([γGlu-C20 diacid])CNTATCATQRLADFLRHSSPNFGAIPSSTNVGPETY-NH2
modifications: disulfide 2-7; N-terminus assumed
SMILES: CC[C@H](C)[C@H](NC(=O)[C@H](C)NC(=O)CNC(=O)[C@H](Cc1ccccc1)NC(=O)[C@H](CC(N)=O)NC(=O)[C@@H]1CCCN1C(=O)[C@H](CO)NC(=O)[C@H](CO)NC(=O)[C@H](Cc1c[nH]cn1)NC(=O)[C@H](CCCNC(=N)N)NC(=O)[C@H](CC(C)C)NC(=O)[C@H](Cc1ccccc1)NC(=O)[C@H](CC(=O)O)NC(=O)[C@H](C)NC(=O)[C@H](CC(C)C)NC(=O)[C@H](CCCNC(=N)N)NC(=O)[C@H](CCC(N)=O)NC(=O)[C@@H](NC(=O)[C@H](C)NC(=O)[C@@H]1CSSC[C@H](NC(=O)[C@@H](N)CCCCNC(=O)CC[C@H](NC(=O)CCCCCCCCCCCCCCCCCCC(=O)O)C(=O)O)C(=O)N[C@@H](CC(N)=O)C(=O)N[C@@H]([C@@H](C)O)C(=O)N[C@@H](C)C(=O)N[C@@H]([C@@H](C)O)C(=O)N1)[C@@H](C)O)C(=O)N1CCC[C@H]1C(=O)N[C@@H](CO)C(=O)N[C@@H](CO)C(=O)N[C@H](C(=O)N[C@@H](CC(N)=O)C(=O)N[C@H](C(=O)NCC(=O)N1CCC[C@H]1C(=O)N[C@@H](CCC(=O)O)C(=O)N[C@H](C(=O)N[C@@H](Cc1ccc(O)cc1)C(N)=O)[C@@H](C)O)C(C)C)[C@@H](C)O
B4: N^ε1-[(4S)-4-carboxy-4-[[(4S)-4-carboxy-4-(19-carboxynonadecanoylamino)butanoyl]amino]butanoyl]-[Glu14,Arg17,Pro21,Pro27,Pro34,Phe37]-h-amylin (peptide)
peptide: K([γGlu-γGlu-C20 diacid])CNTATCATQRLAEFLRHSSPNFGAIPSSTNVGPNTF-NH2
modifications: disulfide 2-7 (inferred)
B5: N^ε1-[(4S)-4-carboxy-4-[[(4S)-4-carboxy-4-(19-carboxynonadecanoylamino)butanoyl]amino]butanoyl]-[Glu14,Arg17,Pro23,Pro34,Glu35]-h-amylin (peptide)
peptide: K([γGlu-γGlu-C20 diacid])CNTATCATQRLAEFLRHSSNNPGAILSSTNVGPETY-NH2
modifications: disulfide 2-7 (inferred)
B6: N^ε1-[(4S)-4-carboxy-4-[[(4S)-4-carboxy-4-(19-carboxynonadecanoylamino)butanoyl]amino]butanoyl]-[Glu14,Arg17,Pro21,Pro31,Pro34,Glu35]-h-amylin (peptide)
peptide: K([γGlu-γGlu-C20 diacid])CNTATCATQRLAEFLRHSSPNFGAILSSTPVGPETY-NH2
modifications: disulfide 2-7 (inferred)
B7: N^ε1-[(4S)-4-carboxy-4-[[(4S)-4-carboxy-4-(19-carboxynonadecanoylamino)butanoyl]amino]butanoyl]-[Ser14,Arg17,Pro21,Pro27,Pro34,Glu35]-h-amylin (peptide)
peptide: K([γGlu-γGlu-C20 diacid])CNTATCATQRLASFLRHSSPNFGAIPSSTNVGPETY-NH2
modifications: disulfide 2-7 (inferred)
notes: also called compound 120
B8: N^ε1-[(4S)-4-carboxy-4-(19-carboxynonadecanoylamino)butanoyl]-[Asp14,Arg17,Pro21,Pro27,Pro34,Glu35]-h-amylin (peptide)
peptide: K([γGlu-C20 diacid])CNTATCATQRLADFLRHSSPNFGAIPSSTNVGPETY-NH2
modifications: disulfide 2-7 (inferred)
B9: N^ε1-[(4S)-4-carboxy-4-[[(4S)-4-carboxy-4-(19-carboxynonadecanoylamino)butanoyl]amino]butanoyl]-[D-Asp14,Arg17,Pro21,Pro27,Arg35]-h-amylin (peptide)
peptide: K([γGlu-γGlu-C20 diacid])CNTATCATQRLA[dD]FLRHSSPNFGAIPSSTNVGSRTY-NH2
modifications: disulfide 2-7; N-terminus assumed
SMILES: CC[C@H](C)[C@H](NC(=O)[C@H](C)NC(=O)CNC(=O)[C@H](Cc1ccccc1)NC(=O)[C@H](CC(N)=O)NC(=O)[C@@H]1CCCN1C(=O)[C@H](CO)NC(=O)[C@H](CO)NC(=O)[C@H](Cc1c[nH]cn1)NC(=O)[C@H](CCCNC(=N)N)NC(=O)[C@H](CC(C)C)NC(=O)[C@H](Cc1ccccc1)NC(=O)[C@@H](CC(=O)O)NC(=O)[C@H](C)NC(=O)[C@H](CC(C)C)NC(=O)[C@H](CCCNC(=N)N)NC(=O)[C@H](CCC(N)=O)NC(=O)[C@@H](NC(=O)[C@H](C)NC(=O)[C@@H]1CSSC[C@H](NC(=O)[C@@H](N)CCCCNC(=O)CC[C@H](NC(=O)CC[C@H](NC(=O)CCCCCCCCCCCCCCCCCCC(=O)O)C(=O)O)C(=O)O)C(=O)N[C@@H](CC(N)=O)C(=O)N[C@@H]([C@@H](C)O)C(=O)N[C@@H](C)C(=O)N[C@@H]([C@@H](C)O)C(=O)N1)[C@@H](C)O)C(=O)N1CCC[C@H]1C(=O)N[C@@H](CO)C(=O)N[C@@H](CO)C(=O)N[C@H](C(=O)N[C@@H](CC(N)=O)C(=O)N[C@H](C(=O)NCC(=O)N[C@@H](CO)C(=O)N[C@@H](CCCNC(=N)N)C(=O)N[C@H](C(=O)N[C@@H](Cc1ccc(O)cc1)C(N)=O)[C@@H](C)O)C(C)C)[C@@H](C)O

Each binder was assayed against T1, human calcitonin receptor (assay: ratio of IC50 at human calcitonin receptor to IC50 at human amylin receptor (SPA competition assays)).
Procedure, shortened: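 IC₅₀ values were derived by one-site competition analysis of SPA counts. Cell membranes (35 ng/μL) with SPA beads were incubated with test compounds for 120 min at 25° C in Hepes buffer, pH 7.4, containing CaCl2, MgCl₂, OA and Tween20.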

Compared with B1, B2 is higher in “Ratio hCT/hAmylin binding” value: 38.6 for the first, 151 for the second.

With B3 the “Ratio hCT/hAmylin binding” value was 16.7.

Each binder was assayed against T2, human amylin receptor (amylin 3(a) …) (assay: cell-based or functional assay).

Going from B4 to B6, the “Ratio hCT/hAmylin funct.” value falls from 9.9 to 5.8.

First: B7
Second: B8
The “Ratio hCT/hAmylin funct.” value of the first is higher: 8.1 for the first, 3.9 for the second.

Going from B4 to B5, the “hAmylin-R funct. EC50 (pM)” value rises from 216 pM to 5170 pM.

Going from B6 to B7, the “hAmylin-R funct. EC50 (pM)” value falls from 222 pM to 109 pM.

B8 was tested, and the “hAmylin-R funct. EC50 (pM)” value was 288 pM.

What follows are binders tested against T3, human calcitonin receptor (assay: cell-based or functional assay).

Going from B4 to B5, the “hCTR funct. EC50 (pM)” value rises from 2140 pM to 89600 pM.

Going from B6 to B7, the “hCTR funct. EC50 (pM)” value falls from 1280 pM to 887 pM.

B8 was tested, and the “hCTR funct. EC50 (pM)” value was 1120 pM.

The binders below were run against T1, human calcitonin receptor (assay: SPA competition against 125I-calcitonin, membranes of BHK cells with human calcitonin receptor (Assay VII)).
Procedure, shortened: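 BHK hCTR membranes 35 ng/μL + SPA beads 0.05 mg/well; buffer 50 mM Hepes pH 7.4, 1 mM CaCl2, 5 mM MgCl₂, 0.1% OA, 0.02% Tween20. 120 min, 25° C., shaking. Scintillation count; IC50 by one-site binding competition.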

Compared with B1, B2 is 6.7-fold higher in IC50: 6.3 nM for the first, 42.5 nM for the second. The first is the more potent here.

Going from B3 to B9, the IC50 rises from 3.27 nM to 112 nM (34-fold). The first is the more potent here.
